Kd data for 27 substances are collected here from PMC4509860.

pKd: −log10 of the molar value.

One assay has as its target FITC-labeled CurA leader (Corynebacterium urealyticum DSM 7109). Briefly: fluorescence polarisation. On the technique in general: In fluorescence polarisation assays a small probe gives low polarisation when free and higher when bound to something large.
On to CurC R68A (natural protein), for which the pKd – broadly, the Kd on a negative log10 scale, so that one unit is a factor of ten – is 4.10.
Same read-out and setting: with CurC Q21A (natural protein) the figure was 5.10.
On the same count and under the same terms, with CurC E36A (natural protein) the figure was 5.51; with CurC I75A (natural protein), 4.18.
The same measure, in the same setting: with CurC E25A (natural protein) the figure was 5.37; with CurC D18A (natural protein), 5.48; with CurC Y31A (natural protein), less than 3.82.

A further assay deals with FITC-labeled BalhA1 leader peptide (Bacillus sp. Al Hakam). In words: fluorescence polarisation.
For the substance BalhC E66A (natural protein), the pKd was 4.22.
The same measure, in the same setting: as for BalhC K20A (natural protein), the figure is 4.28; as for BalhC D23A (natural protein), 4.30; as for BalhC wild-type (natural protein), 5.00.
Same read-out and setting: as for BalhC H38A (natural protein), the figure is 4.68.
BalhC D32A (natural protein) had a pKd of 4.68.

For another assay, the target named is FITC-labeled StmA leader peptide (Streptomonospora alba). In words: fluorescence polarisation.
StmE V12A (natural protein) showed a pKd of 6.80.
On the same count and under the same terms, with StmE N22A (natural protein) the figure was 6.39.
Still for that read-out and setting: with StmE D68A (natural protein) the figure was 7.42; with StmE wild-type (natural protein), 7.46; with StmE Q76A (natural protein), 7.12.
Still for that read-out and setting: with StmE D75A (natural protein) the figure was 7.46.
Turning to StmE Y28A (natural protein), the negative-log Kd (pKd) is 7.55.
The same measure, in the same setting: with StmE D69A (natural protein) the figure was 5.59.

In a further assay the target is FITC-labeled HcaA leader peptide (Bacillus sp. Al Hakam). Briefly: fluorescence polarisation.
Regarding HcaF N72A (natural protein), the pKd was 7.10.
HcaF E79A (natural protein): the negative-log Kd (pKd) was 7.12.
HcaF D38A (natural protein) had a pKd of 7.11.
HcaF R73A (natural protein) had a negative logarithm of the Kd (pKd) of less than 5.00.
HcaF I80A (natural protein) gave a pKd of 6.30.
The same measure, in the same setting: with HcaF E76A (natural protein) the figure was 6.60.
